Results reported in patent US20220411487A1 (Regeneron, published 2022).
Positions count from the first letter of the chain named. Names may count otherwise.

T1: extracellular domain of cynomolgous monkey TMPRSS6 (V673M) with N-terminal 8xHistidine, CHO conditioned media (cynomolgous monkey, UniProt Q8IU80 77-811 (human entry))
T1 chain: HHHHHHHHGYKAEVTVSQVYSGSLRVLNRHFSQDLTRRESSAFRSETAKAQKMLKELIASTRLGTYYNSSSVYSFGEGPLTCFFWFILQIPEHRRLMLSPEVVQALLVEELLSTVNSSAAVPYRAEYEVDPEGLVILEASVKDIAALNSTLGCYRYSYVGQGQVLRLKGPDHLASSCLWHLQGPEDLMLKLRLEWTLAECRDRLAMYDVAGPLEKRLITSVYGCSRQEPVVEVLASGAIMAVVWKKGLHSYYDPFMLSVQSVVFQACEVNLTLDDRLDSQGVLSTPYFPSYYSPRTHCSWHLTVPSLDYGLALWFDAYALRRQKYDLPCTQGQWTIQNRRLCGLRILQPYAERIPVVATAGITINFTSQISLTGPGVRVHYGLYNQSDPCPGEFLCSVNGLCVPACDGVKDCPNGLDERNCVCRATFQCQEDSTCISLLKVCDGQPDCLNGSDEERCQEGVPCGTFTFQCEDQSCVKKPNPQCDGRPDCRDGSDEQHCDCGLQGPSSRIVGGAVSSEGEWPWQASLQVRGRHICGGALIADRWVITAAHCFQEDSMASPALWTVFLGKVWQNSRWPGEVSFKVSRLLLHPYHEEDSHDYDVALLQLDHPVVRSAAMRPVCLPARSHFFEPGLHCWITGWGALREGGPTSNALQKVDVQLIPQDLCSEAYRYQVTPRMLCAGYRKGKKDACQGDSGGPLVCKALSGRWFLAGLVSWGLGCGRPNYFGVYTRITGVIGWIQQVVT

T2: full length human TMPRSS6 on HEK293 cells (HEK293/hTMPRSS6) (human, UniProt Q8IU80 10-811)
T2 sequence (looked up): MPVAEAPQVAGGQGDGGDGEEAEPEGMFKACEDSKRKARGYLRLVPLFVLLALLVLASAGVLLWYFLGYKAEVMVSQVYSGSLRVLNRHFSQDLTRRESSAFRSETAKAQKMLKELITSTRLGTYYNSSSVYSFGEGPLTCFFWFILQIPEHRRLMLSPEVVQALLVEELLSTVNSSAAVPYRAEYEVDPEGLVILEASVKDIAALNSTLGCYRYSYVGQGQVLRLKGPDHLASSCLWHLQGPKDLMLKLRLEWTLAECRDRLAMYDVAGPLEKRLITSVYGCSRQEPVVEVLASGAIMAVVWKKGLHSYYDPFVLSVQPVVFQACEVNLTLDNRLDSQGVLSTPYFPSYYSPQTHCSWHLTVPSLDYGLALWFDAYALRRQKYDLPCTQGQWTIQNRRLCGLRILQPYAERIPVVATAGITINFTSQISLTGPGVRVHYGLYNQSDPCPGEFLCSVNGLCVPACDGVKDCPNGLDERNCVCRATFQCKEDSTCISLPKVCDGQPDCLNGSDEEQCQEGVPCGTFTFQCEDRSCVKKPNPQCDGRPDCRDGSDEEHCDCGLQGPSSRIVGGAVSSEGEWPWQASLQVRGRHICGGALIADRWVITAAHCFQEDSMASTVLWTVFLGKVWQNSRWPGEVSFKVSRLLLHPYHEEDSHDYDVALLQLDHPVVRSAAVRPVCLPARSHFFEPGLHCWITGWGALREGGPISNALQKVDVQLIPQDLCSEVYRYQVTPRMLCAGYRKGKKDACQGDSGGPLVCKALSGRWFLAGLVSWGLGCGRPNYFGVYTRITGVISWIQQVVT

B1: REGN7969 (antibody, human IgG4 S228P, kappa, V domains shown)
VH: QVQLVESGGGVVQPGRSLRLSCAASGFTFNNYGMHWVRQAPGKGLEWVAIISYDGSNEYYSDSVKGRFTISRDNSKNTLYLQMNSLRAEDTAVYYCARDQDYGGNLFHYWGQGTLVTVSS
VL: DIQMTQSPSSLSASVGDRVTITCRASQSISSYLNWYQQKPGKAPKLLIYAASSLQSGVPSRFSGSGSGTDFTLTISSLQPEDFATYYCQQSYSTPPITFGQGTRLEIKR
notes: fully human; human IgG4 Fc with hinge S108P; also called mAb37746
B2: REGN7971 (antibody, human IgG4 S228P, kappa, V domains shown)
VH: B1 VH with N30S, N31T, E58D, S61L, S85N, R98K, D101G, H108A, Y109S
VL: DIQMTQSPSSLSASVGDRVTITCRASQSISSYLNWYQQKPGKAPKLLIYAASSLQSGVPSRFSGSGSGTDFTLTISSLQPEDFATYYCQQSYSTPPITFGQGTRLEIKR
notes: fully human; human IgG4 Fc with hinge S108P; also called mAb37763
B3: REGN7977 (antibody, V domains shown)
VH: EVQLVESGGGLVKPGGSLRVSCAASGVTFSNVWMSWVRQVPGKGLEWVGRIKSKTDGGTTDYAAPVKGRFTISKDDSKNTLFLQMNSLKTEDTAVYYCTTETGDFWSGYYPRFQHWGQGTLVTVSS
VL: DIQMTQSPSSLSASVGDRVTITCRASQYISTYLNWYQQKPGKAPSLLIYAASSLQSGVPSRFSGSGSGTDFTLTISSLQPEDFASYSCQQSYSTPPYTFGQGTKLEIKR
notes: fully human; human IgG4 Fc with hinge S108P; also called mAb41465
B4: REGN7999 (antibody, human IgG4 S228P, kappa, V domains shown)
VH: EVQLVESGGGLVQPGGSLRLSCAASGFTFSSYAMTWVRQAPGKGLEWVSAISGSDTSTYYADSVKGRFTISRDNSKNTLFLQMNSLRAEDTAVYYCAKHQDYDFSYYYSAMDVWGQGTTVTVSS
VL: DIQMTQSPSSLSASVGDRVIITCRASQDFNSWLAWYQQKPGKAPKLLIYAASSLQSGVPSRFSGSGSGTDFTLTISSLQPEDFATYYCQQTDSFPFTFGPGTKVDIKR
notes: fully human; human IgG4 Fc with hinge S108P; also called mAb41450
B5: REGN8023 (antibody, human IgG4 S228P, kappa, V domains shown)
VH: EVQLVESGGGLVKPGGSLRISCAASGFIFVDYAMHWVRQAPGKGLEWVSGISWNSGSIGYADSVKGRFTISRDNAKKSLYLQMSGLRPEDTALYYCVKSGFYYVRSYFDNWGQGTLVTVSS
VL: DIVMTQSPLSLPVTPGEPASISCRSSQSLLDSDDGNTYLDWYLRKPGQSPQLLIYTLSYRASGVPDRFSGSGSGTDFTLKISRVEADDVGVYYCMQRIEFPLTFGGGTKVEIKR
notes: fully human; human IgG4 Fc with hinge S108P; also called mAb37699
B6: REGN7974 (antibody, human IgG4 S228P, kappa, V domains shown)
VH: EVQLVESGGGLVQPGRSLRLSCIASGFNFGDYGMSWVRQAPGKGLEWVGFIRSKAYGGTTEYAASVKGRFTISRDDSKSIAYLQMNSLKTEDAAMYYCSRDYYDILTGYYGDYWGQGTLVTVSS
VL: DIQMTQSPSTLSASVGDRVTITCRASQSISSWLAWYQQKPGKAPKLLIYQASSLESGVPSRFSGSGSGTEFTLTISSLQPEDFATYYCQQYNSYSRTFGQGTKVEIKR
notes: fully human; human IgG4 Fc with hinge S108P; also called mAb41422

Assays:
Test in all cases: cell-based or functional assay
[1] = target: extracellular domain of Human TMPRSS6 with N-terminal 8xHistidine, CHO conditioned media (human, UniProt Q8IU80 68-802, limits assumed)
[2] = target: T1, extracellular domain of cynomolgous …
[3] = target: T2, full length human TMPRSS6 on HEK293 …

Sequence of extracellular domain of Human TMPRSS6 with N-terminal 8xHistidine, CHO conditioned media (Q8IU80 other isoform, or with tags, fused parts or gaps limits assumed): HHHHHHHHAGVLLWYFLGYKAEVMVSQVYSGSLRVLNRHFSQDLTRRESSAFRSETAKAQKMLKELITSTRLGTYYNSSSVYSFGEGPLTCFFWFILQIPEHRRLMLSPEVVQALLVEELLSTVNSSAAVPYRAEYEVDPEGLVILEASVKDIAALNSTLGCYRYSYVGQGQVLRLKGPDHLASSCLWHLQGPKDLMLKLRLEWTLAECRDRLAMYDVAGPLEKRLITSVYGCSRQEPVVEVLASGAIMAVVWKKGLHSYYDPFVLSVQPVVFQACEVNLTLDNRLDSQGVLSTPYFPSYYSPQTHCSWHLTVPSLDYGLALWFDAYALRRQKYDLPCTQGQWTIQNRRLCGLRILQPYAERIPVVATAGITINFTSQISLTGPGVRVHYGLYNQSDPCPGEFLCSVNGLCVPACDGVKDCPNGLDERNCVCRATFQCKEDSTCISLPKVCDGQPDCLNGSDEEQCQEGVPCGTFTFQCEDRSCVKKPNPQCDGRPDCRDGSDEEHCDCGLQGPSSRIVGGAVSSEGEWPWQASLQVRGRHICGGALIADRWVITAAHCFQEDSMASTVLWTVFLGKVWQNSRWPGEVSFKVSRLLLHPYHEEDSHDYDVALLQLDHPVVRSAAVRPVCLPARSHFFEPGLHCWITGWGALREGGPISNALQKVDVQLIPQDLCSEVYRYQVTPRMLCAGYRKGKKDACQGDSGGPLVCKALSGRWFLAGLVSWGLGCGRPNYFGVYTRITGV

| Binder | % inhibition of enzymatic activity, CM bioassay [1] | IC50, CM bioassay [1] | % inhibition of enzymatic activity, CM bioassay [2] | IC50, CM bioassay [2] | % inhibition, HEK293 bioassay, overnight pre-incubation 37 C [3] | IC50, HEK293 bioassay, overnight pre-incubation 37 C [3] |
| --- | --- | --- | --- | --- | --- | --- |
| B1 | 71% | > 10 nM | 66% | > 50 nM | 88% | 1.2 nM |
| B2 | 65% | > 10 nM | 68% | > 50 nM | 90% | 1.4 nM |
| B3 | 94% | 23 nM | 89% | 50 nM | 87% | 1.7 nM |
| B4 | 98% | 3 nM | 98% | 1.7 nM | 89% | 2.1 nM |
| B5 | 98% | 0.71 nM | 98% | 0.74 nM | 90% | 1.1 nM |
| B6 | 85% | 400 nM | 69% | > 50 nM | 86% | 2.6 nM |
